Measured values as given in the supplement of paper PMC11246515.
± gives the standard deviation of the averaged measurements.

Assay: total protein half-life in vivo (active degradation + dilution); higher = more stable protein
[1] = E. coli NCM3722 delta-clpP delta-lon delta-hslV, growth: N-lim chemostat, doubling time 6 h
[2] = E. coli NCM3722 delta-clpP, growth: N-lim chemostat, doubling time 6 h
[3] = E. coli NCM3722 delta-hslV, growth: N-lim chemostat, doubling time 6 h
[4] = E. coli NCM3722 delta-lon, growth: N-lim chemostat, doubling time 6 h
[5] = E. coli NCM3722 delta-smpB, growth: N-lim chemostat, doubling time 6 h
[6] = wild type E. coli NCM3722, growth: C-lim chemostat, doubling time 3 h
[7] = wild type E. coli NCM3722, growth: C-lim chemostat, doubling time 6 h
[8] = wild type E. coli NCM3722, growth: C-lim chemostat, doubling time 12 h
[9] = wild type E. coli NCM3722, growth: N-lim chemostat, doubling time 6 h
[10] = wild type E. coli NCM3722, growth: N-lim chemostat, doubling time 12 h
[11] = wild type E. coli NCM3722, growth: P-lim chemostat, doubling time 6 h
[12] = wild type E. coli NCM3722, growth: P-lim chemostat, doubling time 12 h

Sequence	total protein half-life in vivo [1] [h]	total protein half-life in vivo [2] [h]	total protein half-life in vivo [3] [h]	total protein half-life in vivo [4] [h]	total protein half-life in vivo [5] [h]	total protein half-life in vivo [6] [h]	total protein half-life in vivo [7] [h]	total protein half-life in vivo [8] [h]	total protein half-life in vivo [9] [h]	total protein half-life in vivo [10] [h]	total protein half-life in vivo [11] [h]	total protein half-life in vivo [12] [h]
MKTSVRIGAFEIDDGELHGESPGDRTLTIPCKSDPDLCMQLDAWDAETSIPALLNGEHSVLYRTRYDQQSDAWIMRLA	2.16 ± 0.13	1.58	0.651	1.83 ± 1.1	0.479 ± 0.045	1.04 ± 0.18	1.846 ± 0.018	2.06	0.85	0.89	0.882 ± 0.16	1.16
MTKTVSTSKKPRKQHSPEFRSEALKLAERIGVTAAARELSLYESQLYNWRSKQQNQQTSSERELEMSTEIARLKRQLAERDEELAILQKAATYFAKRLK [P0CF66]								3.53				5.25 ± 0.29
MLNAWHLPVPPFVKQSKDQLLITLWLTGEDPPQRIMLRTEHDNEEMSVPMHKQRSQPQPGVTAWRAAIDLSSGQPRRRYSFKLLWHDRQRWFTPQGFSRMPPARLEQFAVDVPDIGPQWAADQIFYQIFPDRFARSLPREAEQDHVYYHHAAGQEIILRDWDEPVTAQAGGSTFYGGDLDGISEKLPYLKKLGVTALYLNPVFKAPSVHKYDTEDYRHVDPQFGGDGALLRLRHNTQQLGMRLVLDGVFNHSGDSHAWFDRHNRGTGGACHNPESPWRDWYSFSDDGTALDWLGYASLPKLDYQSESLVNEIYRGEDSIVRHWLKAPWNMDGWRLDVVHMLGEAGGARNNMQHVAGITEAAKETQPEAYIVGEHFGDARQWLQADVEDAAMNYRGFTFPLWGFLANTDISYDPQQIDAQTCMAWMDNYRAGLSHQQQLRMFNQLDSHDTARFKTLLGRDIARLPLAVVWLFTWPGVPCIYYGDEVGLDGKNDPFCRKPFPWQVEKQDTALFALYQRMIALRKKSQALRHGGCQVLYAEDNVVVFVRVLNQQRVLVAINRGEACEVVLPASPFLNAVQWQCKEGHGQLTDGILALPAISATVWMN	6.31 ± 0.59	6.88 ± 1.2	2.49 ± 0.11	2.59 ± 0.38	2.28 ± 0.031	2.48 ± 0.074	3.86 ± 0.075	6.87 ± 1.4	2.18	3.45 ± 0.98	5 ± 0.27	7.49 ± 0.34
MQSVDVAIVGGGMVGLAVACGLQGSGLRVAVLEQRVQEPLAANAPPQLRVSAINAASEKLLTRLGVWQDILSRRASCYHGMEVWDKDSFGHISFDDQSMGYSHLGHIVENSVIHYALWNKAHQSSDITLLAPAELQQVAWGENETFLTLKDGSMLTARLVIGADGANSWLRNKADIPLTFWDYQHHALVATIRTEEPHDAVARQVFHGEGILAFLPLSDPHLCSIVWSLSPEEAQRMQQASEDEFNRALNIAFDNRLGLCKVESARQVFPLTGRYARQFASHRLALVGDAAHTIHPLAGQGVNLGFMDAAELIAELKRLHRQGKDIGQYIYLRRYERSRKHSAALMLAGMQGFRDLFSGTNPAKKLLRDIGLKLADTLPGVKPQLIRQAMGLNDLPEWLR	5.67 ± 0.7	5.28 ± 0.23	4.33 ± 0.36	4.06 ± 0.068	4.06 ± 0.21	2.864 ± 0.025	5.52 ± 0.85	7.26 ± 0.26	4.1 ± 0.084	7.19 ± 0.06	3.16 ± 0.12	5.3 ± 0.84
MSDVAETLDPLRLPLQGERLIEASAGTGKTFTIAALYLRLLLGLGGSAAFPRPLTVEELLVVTFTEAATAELRGRIRSNIHELRIACLRETTDNPLYERLLEEIDDKAQAAQWLLLAERQMDEAAVFTIHGFCQRMLNLNAFESGMLFEQQLIEDESLLRYQACADFWRRHCYPLPREIAQVVFETWKGPQALLRDINRYLQGEAPVIKAPPPDDETLASRHAQIVARIDTVKQQWRDAVGELDALIESSGIDRRKFNRSNQAKWIDKISAWAEEETNSYQLPESLEKFSQRFLEDRTKAGGETPRHPLFEAIDQLLAEPLSIRDLVITRALAEIRETVAREKRRRGELGFDDMLSRLDSALRSESGEVLAAAIRTRFPVAMIDEFQDTDPQQYRIFRRIWHHQPETALLLIGDPKQAIYAFRGADIFTYMKARSEVHAHYTLDTNWRSAPGMVNSVNKLFSQTDDAFMFREIPFIPVKSAGKNQALRFVFKGETQPAMKMWLMEGESCGVGDYQSTMAQVCAAQIRDWLQAGQRGEALLMNGDDARPVRASDISVLVRSRQEAAQVRDALTLLEIPSVYLSNRDSVFETLEAQEMLWLLQAVMTPERENTLRSALATSMMGLNALDIETLNNDEHAWDVVVEEFDGYRQIWRKRGVMPMLRALMSARNIAENLLATAGGERRLTDILHISELLQEAGTQLESEHALVRWLSQHILEPDSNASSQQMRLESDKHLVQIVTIHKSKGLEYPLVWLPFITNFRVQEQAFYHDRHSFEAVLDLNAAPESVDLAEAERLAEDLRLLYVALTRSVWHCSLGVAPLVRRRGDKKGDTDVHQSALGRLLQKGEPQDAAGLRTCIEALCDDDIAWQTAQTGDNQPWQVNDVSTAELNAKTLQRLPGDNWRVTSYSGLQQRGHGIAQDLMPRLDVDAAGVASVVEEPTLTPHQFPRGASPGTFLHSLFEDLDFTQPVDPNWVREKLELGGFESQWEPVLTEWITAVLQAPLNETGVSLSQLSARNKQVEMEFYLPISEPLIASQLDTLIRQFDPLSAGCPPLEFMQVRGMLKGFIDLVFRHEGRYYLLDYKSNWLGEDSSAYTQQAMAAAMQAHRYDLQYQLYTLALHRYLRHRIADYDYEHHFGGVIYLFLRGVDKEHPQQGIYTTRPNAGLIALMDEMFAGMTLEEA	5.03 ± 0.26	4.28 ± 0.35	3.64 ± 0.075	3.84 ± 0.3	3.72 ± 0.33	3.13 ± 0.34	5.03 ± 0.71	13.2 ± 3.9	3.87 ± 0.3	5.71 ± 0.92	6.9 ± 0.91	10.4 ± 0.56
MRILLSNDDGVHAPGIQTLAKALREFADVQVVAPDRNRSGASNSLTLESSLRTFTFENGDIAVQMGTPTDCVYLGVNALMRPRPDIVVSGINAGPNLGDDVIYSGTVAAAMEGRHLGFPALAVSLDGHKHYDTAAAVTCSILRALCKEPLRTGRILNINVPDLPLDQIKGIRVTRCGTRHPADQVIPQQDPRGNTLYWIGPPGGKCDAGPGTDFAAVDEGYVSITPLHVDLTAHSAQDVVSDWLNSVGVGTQW [P0A840]	4.833 ± 0.047	4.03	4.1 ± 0.25		3.71 ± 0.83	3.04 ± 0.33	6.21 ± 0.81	8.36 ± 0.48	4.5	5.84 ± 1.5		
